{"source": "patent US20210261654A1", "about": "(BEIJING BEYOND BIOTECHNOLOGY, published 2021)", "target": "T1, Recombinant human TNF-α (Sino Biological Inc., catalog number: 10602-HNAE) (human, UniProt P01375 77-233)", "T1 construct": "Bought protein; also called recombinant human TNF-α protein", "T1 sequence (P01375 77-233 limits assumed)": "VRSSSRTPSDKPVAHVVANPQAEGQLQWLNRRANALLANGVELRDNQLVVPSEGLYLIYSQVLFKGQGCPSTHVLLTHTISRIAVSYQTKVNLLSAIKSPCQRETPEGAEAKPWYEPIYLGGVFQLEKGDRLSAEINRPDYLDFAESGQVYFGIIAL", "experiment": "SPR (Biacore T100), BY19.4 captured by anti-IgG on CM5 chip"}
{"binder": "anti-IL-17A antibody BY19.4 (antibody, human IgG4 S228P, kappa, V domains shown, also called control antibody BY19.4; BY19.4 (ixekizumab)) VH: QVQLVQSGAEVKKPGSSVKVSCKASGYSFTDYHIHWVRQAPGQGLEWMGVINPMYGTTDYNQRFKGRVTITADESTSTAYMELSSLRSEDTAVYYCARYDYFTGTGVYWGQGTLVTVSS VL: DIVMTQTPLSLSVTPGQPASISCRSSRSLVHSRGNTYLHWYLQKPGQSPQLLIYKVSNRFIGVPDRFSGSGSGTDFTLKISRVEAEDVGVYYCSQSTHLPFTFGQGTKVEIKR", "values": [{"measurement": "binding result", "value": "no binding (tested: 7 nM to 600 nM tested)"}]}
